Reference: patent US4797472A, “New peptide derivatives” (KabiVitrum AB, priority 1986, dated 1989)
Square brackets hold non-standard residues; d marks the D form. Peptide text beside a SMILES is read from it. * marks the point of attachment. pNA = O=[N+]([O-])c1ccc(N*)cc1; Cbz = O=C(OCc1ccccc1)*; Ms = CS(=O)(=O)*

Tests used:
[1] = target: T1, FXa human (Homo sapiens, UniProt P00742); test: Determination of kinetic constants for FXa human (plasma activated with RVV+CaCl2); type: biochemical; conditions: for Km: substrate 0.1-0.7 mmol/l, trisbuffer pH 7.0, I=0.25, polybrene, 37° C.
T1 construct: from tissue; host or cells: human plasma
T1 sequence (P00742 235-488 limits assumed): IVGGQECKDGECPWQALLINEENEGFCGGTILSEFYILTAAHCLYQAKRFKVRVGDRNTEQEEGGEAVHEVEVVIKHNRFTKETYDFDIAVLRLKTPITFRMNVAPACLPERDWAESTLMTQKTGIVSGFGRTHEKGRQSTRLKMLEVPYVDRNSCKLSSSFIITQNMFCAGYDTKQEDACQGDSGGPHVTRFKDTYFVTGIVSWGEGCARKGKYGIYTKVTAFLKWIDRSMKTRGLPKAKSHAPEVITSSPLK
T1 sequence (P00742 41-179 partner limits assumed): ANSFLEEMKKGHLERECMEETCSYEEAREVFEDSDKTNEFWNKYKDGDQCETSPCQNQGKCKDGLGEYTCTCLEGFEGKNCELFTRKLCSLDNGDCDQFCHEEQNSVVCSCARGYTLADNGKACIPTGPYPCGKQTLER
Protocol: The kinetic data for the substrates are determined by measuring the initial velocity of hydrolysis (Vi) at different substrate concentrations (Si) and at constant enzyme concentrations (Eo). The binding constant (Km) and the maximum velocity (Vmax) are obtained in known manner from Lineweaver-Burk-plot, then the Kcat is calculated (Hemker H. C. loc. cit.)
The substrates in concentrations between 0.1-0.7 mmol/l (Si) are mixed with FXa human plasma and treated according to the method as described by Aurell; L., et al. (Perspectives in Hemostatis, Ed. Fareed J. et al, New York, Pergamon Press 1981, p. 382-388).
10 μl test plasma, control or standard and 200 μl trisbuffer solution (0.05 mol/l tris, pH 7.0, I=0.25 (NaCl)), polybrene (0.1 g/l) are mixed and incubated at 37° C. for 2-4 minutes. 200 μl substrate (37° C.) in concentrations between 0.1-0.7 mmol/l dissolved in trisbuffer solution prepared according to the above are added. The mixture is well stirred and within 30 seconds 200 μl RVV+CaCl2 (20°-25° C.) are added and the mixture is stirred. The absorbance change is measured at once in a spectrophotometer at 405 nm and 37° C.

[2] = target: T2, Thrombin bovine (Bos taurus, UniProt P00735); test: Determination of thrombin sensitivity; type: biochemical; conditions: for Km: substrate 0.1-0.4 mmol/l
T2 construct: Thrombin bovine (KabiVitrum) with a constant concentration E0 =1.3 nmol/l; purchased KabiVitrum

[3] = target: FXa bovine (Bos taurus, UniProt P00743); test: Determination of the kinetic constants for FXa bovine (chromogenic/fluorogenic substrate hydrolysis)
FXa bovine, sequence (P00743 41-180 partner limits assumed, one chain of several): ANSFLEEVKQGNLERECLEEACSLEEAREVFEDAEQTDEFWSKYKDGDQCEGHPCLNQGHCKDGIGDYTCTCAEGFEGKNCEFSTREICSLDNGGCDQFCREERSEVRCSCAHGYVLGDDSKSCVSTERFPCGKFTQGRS
Protocol: (§1) Enzymes and substrates are mixed in a buffer solution at -37° C. The absorbance change per minute is measured at 405 nm in a spectrophotometer (pNA-substrate) or in a spectrofluorometer at excitation wavelength 380 nm and emission wavelength 440 nm (AMC-substrate).
(§2) FXa bovine (KabiVitrum) with a constant enzyme concentration
E0 =4 nmol/l (pNA-substrate)
E0 =2 nmol/l (AMC-substrate)
(§3) and the substrate in concentrations between 0.01-0.4 mmol/l (Si) are mixed in a trisbuffer solution 0.05 mol/l, pH=8.3, I=0.25 (NaCl) at 37° C. Absorbance change per minute is measured at 405 nm in a spectrophotometer for pNA-substrate and in a spectrofluorometer at emission wavelength 440 nm for AMC-substrate, respectively.

[4] = substrate: CC(C)(C)OC(=O)N[C@H](CCCNC(=N)N)C(=O)NCC(=O)N[C@@H](CCCNC(=N)N)C(=O)Nc1ccc([N+](=O)[O-])cc1; test: purified protein, by the assay type; conditions: other: FXa bovine E0=4 nmol/l (pNA-substrate) or 2 nmol/l (AMC-substrate), substrate 0.01-0.4 mmol/l, trisbuffer 0.05 mol/l, pH 8.3, I=0.25, 37° C.
Protocol: as §1, §2
E0 =4 nmol/l (pNA-substrate)
E0 =2 nmol/l (AMC-substrate)
as §3

[5] = substrate: CC(C)C[C@@H](NS(C)(=O)=O)C(=O)NCC(=O)N[C@@H](CCCNC(=N)N)C(=O)Nc1ccc([N+](=O)[O-])cc1; test: purified protein, by the assay type; conditions: other: FXa bovine E0=4 nmol/l (pNA-substrate) or 2 nmol/l (AMC-substrate), substrate 0.01-0.4 mmol/l, trisbuffer 0.05 mol/l, pH 8.3, I=0.25, 37° C.
Protocol: as §1, §2
E0 =4 nmol/l (pNA-substrate)
E0 =2 nmol/l (AMC-substrate)
as §3

[6] = substrate: CCOC(=O)N[C@H](CCCNC(=N)N)C(=O)NCC(=O)N[C@@H](CCCNC(=N)N)C(=O)Nc1ccc([N+](=O)[O-])cc1; test: purified protein, by the assay type; conditions: other: FXa bovine E0=4 nmol/l (pNA-substrate) or 2 nmol/l (AMC-substrate), substrate 0.01-0.4 mmol/l, trisbuffer 0.05 mol/l, pH 8.3, I=0.25, 37° C.
Protocol: as §1, §2
E0 =4 nmol/l (pNA-substrate)
E0 =2 nmol/l (AMC-substrate)
as §3

[7] = substrate: CCS(=O)(=O)N[C@H](CCCNC(=N)N)C(=O)NCC(=O)N[C@@H](CCCNC(=N)N)C(=O)Nc1ccc([N+](=O)[O-])cc1; test: purified protein, by the assay type; conditions: other: FXa bovine E0=4 nmol/l (pNA-substrate) or 2 nmol/l (AMC-substrate), substrate 0.01-0.4 mmol/l, trisbuffer 0.05 mol/l, pH 8.3, I=0.25, 37° C.
Protocol: as §1, §2
E0 =4 nmol/l (pNA-substrate)
E0 =2 nmol/l (AMC-substrate)
as §3

[8] = substrate: CN(CC(=O)N[C@@H](CCCNC(=N)N)C(=O)Nc1ccc([N+](=O)[O-])cc1)C(=O)[C@@H](CCCNC(=N)N)NC(=O)OCc1ccccc1; test: purified protein, by the assay type; conditions: other: FXa bovine E0=4 nmol/l (pNA-substrate) or 2 nmol/l (AMC-substrate), substrate 0.01-0.4 mmol/l, trisbuffer 0.05 mol/l, pH 8.3, I=0.25, 37° C.
Protocol: as §1, §2
E0 =4 nmol/l (pNA-substrate)
E0 =2 nmol/l (AMC-substrate)
as §3

[9] = substrate: COc1ccc(COC(=O)N[C@H](CCCNC(=N)N)C(=O)NCC(=O)N[C@@H](CCCNC(=N)N)C(=O)Nc2ccc([N+](=O)[O-])cc2)cc1; test: purified protein, by the assay type; conditions: other: FXa bovine E0=4 nmol/l (pNA-substrate) or 2 nmol/l (AMC-substrate), substrate 0.01-0.4 mmol/l, trisbuffer 0.05 mol/l, pH 8.3, I=0.25, 37° C.
Protocol: as §1, §2
E0 =4 nmol/l (pNA-substrate)
E0 =2 nmol/l (AMC-substrate)
as §3

[10] = substrate: COc1ccc(S(=O)(=O)N[C@H](CCCNC(=N)N)C(=O)NCC(=O)N[C@@H](CCCNC(=N)N)C(=O)Nc2ccc([N+](=O)[O-])cc2)cc1; test: purified protein, by the assay type; conditions: other: FXa bovine E0=4 nmol/l (pNA-substrate) or 2 nmol/l (AMC-substrate), substrate 0.01-0.4 mmol/l, trisbuffer 0.05 mol/l, pH 8.3, I=0.25, 37° C.
Protocol: as §1, §2
E0 =4 nmol/l (pNA-substrate)
E0 =2 nmol/l (AMC-substrate)
as §3

[11] = substrate: CS(=O)(=O)N[C@H](CCCNC(=N)N)C(=O)NCC(=O)N[C@@H](CCCNC(=N)N)C(=O)Nc1ccc([N+](=O)[O-])cc1; test: purified protein, by the assay type; conditions: other: FXa bovine E0=4 nmol/l (pNA-substrate) or 2 nmol/l (AMC-substrate), substrate 0.01-0.4 mmol/l, trisbuffer 0.05 mol/l, pH 8.3, I=0.25, 37° C.
Protocol: as §1, §2
E0 =4 nmol/l (pNA-substrate)
E0 =2 nmol/l (AMC-substrate)
as §3

[12] = substrate: Cc1cc(=O)oc2cc(NC(=O)[C@H](CCCNC(=N)N)NC(=O)CNC(=O)[C@@H](CCCNC(=N)N)NC(=O)OCc3ccccc3)ccc12; test: purified protein, by the assay type; conditions: other: FXa bovine E0=4 nmol/l (pNA-substrate) or 2 nmol/l (AMC-substrate), substrate 0.01-0.4 mmol/l, trisbuffer 0.05 mol/l, pH 8.3, I=0.25, 37° C.
Protocol: as §1, §2
E0 =4 nmol/l (pNA-substrate)
E0 =2 nmol/l (AMC-substrate)
as §3

[13] = substrate: Cc1ccc(S(=O)(=O)N[C@H](CCCNC(=N)N)C(=O)NCC(=O)N[C@@H](CCCNC(=N)N)C(=O)Nc2ccc([N+](=O)[O-])cc2)cc1; test: purified protein, by the assay type; conditions: other: FXa bovine E0=4 nmol/l (pNA-substrate) or 2 nmol/l (AMC-substrate), substrate 0.01-0.4 mmol/l, trisbuffer 0.05 mol/l, pH 8.3, I=0.25, 37° C.
Protocol: as §1, §2
E0 =4 nmol/l (pNA-substrate)
E0 =2 nmol/l (AMC-substrate)
as §3

[14] = substrate: N=C(N)NCCC[C@H](NC(=O)CNC(=O)[C@@H](CCCNC(=N)N)NC(=O)OCc1ccc([N+](=O)[O-])cc1)C(=O)Nc1ccc([N+](=O)[O-])cc1; test: purified protein, by the assay type; conditions: other: FXa bovine E0=4 nmol/l (pNA-substrate) or 2 nmol/l (AMC-substrate), substrate 0.01-0.4 mmol/l, trisbuffer 0.05 mol/l, pH 8.3, I=0.25, 37° C.
Protocol: as §1, §2
E0 =4 nmol/l (pNA-substrate)
E0 =2 nmol/l (AMC-substrate)
as §3

[15] = substrate: N=C(N)NCCC[C@H](NC(=O)CNC(=O)[C@@H](CCCNC(=N)N)NC(=O)OCc1ccccc1)C(=O)Nc1ccc([N+](=O)[O-])cc1; test: purified protein, by the assay type; conditions: other: FXa bovine E0=4 nmol/l (pNA-substrate) or 2 nmol/l (AMC-substrate), substrate 0.01-0.4 mmol/l, trisbuffer 0.05 mol/l, pH 8.3, I=0.25, 37° C.
Protocol: as §1, §2
E0 =4 nmol/l (pNA-substrate)
E0 =2 nmol/l (AMC-substrate)
as §3

[16] = substrate: N=C(N)NCCC[C@H](NC(=O)CNC(=O)[C@@H](CCCNC(=N)N)NS(=O)(=O)Cc1ccccc1)C(=O)Nc1ccc([N+](=O)[O-])cc1; test: purified protein, by the assay type; conditions: other: FXa bovine E0=4 nmol/l (pNA-substrate) or 2 nmol/l (AMC-substrate), substrate 0.01-0.4 mmol/l, trisbuffer 0.05 mol/l, pH 8.3, I=0.25, 37° C.
Protocol: as §1, §2
E0 =4 nmol/l (pNA-substrate)
E0 =2 nmol/l (AMC-substrate)
as §3

[17] = substrate: N=C(N)NCCC[C@H](NC(=O)CNC(=O)[C@@H](CCCNC(=N)N)NS(=O)(=O)c1ccc(Cl)cc1)C(=O)Nc1ccc([N+](=O)[O-])cc1; test: purified protein, by the assay type; conditions: other: FXa bovine E0=4 nmol/l (pNA-substrate) or 2 nmol/l (AMC-substrate), substrate 0.01-0.4 mmol/l, trisbuffer 0.05 mol/l, pH 8.3, I=0.25, 37° C.
Protocol: as §1, §2
E0 =4 nmol/l (pNA-substrate)
E0 =2 nmol/l (AMC-substrate)
as §3

[18] = substrate: N=C(N)NCCC[C@H](NC(=O)CNC(=O)[C@@H](CCCNC(=N)N)NS(=O)(=O)c1ccc([N+](=O)[O-])cc1)C(=O)Nc1ccc([N+](=O)[O-])cc1; test: purified protein, by the assay type; conditions: other: FXa bovine E0=4 nmol/l (pNA-substrate) or 2 nmol/l (AMC-substrate), substrate 0.01-0.4 mmol/l, trisbuffer 0.05 mol/l, pH 8.3, I=0.25, 37° C.
Protocol: as §1, §2
E0 =4 nmol/l (pNA-substrate)
E0 =2 nmol/l (AMC-substrate)
as §3

[19] = substrate: N=C(N)NCCC[C@H](NC(=O)CNC(=O)[C@@H](CCCNC(=N)N)NS(=O)(=O)c1ccc2ccccc2c1)C(=O)Nc1ccc([N+](=O)[O-])cc1; test: purified protein, by the assay type; conditions: other: FXa bovine E0=4 nmol/l (pNA-substrate) or 2 nmol/l (AMC-substrate), substrate 0.01-0.4 mmol/l, trisbuffer 0.05 mol/l, pH 8.3, I=0.25, 37° C.
Protocol: as §1, §2
E0 =4 nmol/l (pNA-substrate)
E0 =2 nmol/l (AMC-substrate)
as §3

[20] = substrate: N=C(N)NCCC[C@H](NC(=O)CNC(=O)[C@@H](CCCNC(=N)N)NS(=O)(=O)c1ccccc1)C(=O)Nc1ccc([N+](=O)[O-])cc1; test: purified protein, by the assay type; conditions: other: FXa bovine E0=4 nmol/l (pNA-substrate) or 2 nmol/l (AMC-substrate), substrate 0.01-0.4 mmol/l, trisbuffer 0.05 mol/l, pH 8.3, I=0.25, 37° C.
Protocol: as §1, §2
E0 =4 nmol/l (pNA-substrate)
E0 =2 nmol/l (AMC-substrate)
as §3

[21] = Thrombin bovine E0=1.3 nmol/l, trisbuffer pH 8.3, I=0.25, 37° C.
[22] = trisbuffer pH 7.0, I=0.25, 37° C.

## COc1ccc(COC(=O)N[C@H](CCCNC(=N)N)C(=O)NCC(=O)N[C@@H](CCCNC(=N)N)C(=O)Nc2ccc([N+](=O)[O-])cc2)cc1 [Example 9, N^α --Moz--D--Arg--Gly--Arg--pNA.2HCl]
[1]
  Km: 210 µM
[2]; [21]
  Km: 73 µM

## CCS(=O)(=O)N[C@H](CCCNC(=N)N)C(=O)NCC(=O)N[C@@H](CCCNC(=N)N)C(=O)Nc1ccc([N+](=O)[O-])cc1 [Example 4, N^α --Ets--D--Arg--Gly--Arg--pNA.2HCl]
[1]
  Km: 340 µM
[2]; [21]
  Km: 410 µM

## CC(C)C[C@@H](NS(C)(=O)=O)C(=O)NCC(=O)N[C@@H](CCCNC(=N)N)C(=O)Nc1ccc([N+](=O)[O-])cc1 [CBS 31.39, CH3 SO2 --D--Leu--Gly--Arg--pNA.AcOH] (Ms-[dL]-Gly-Arg-pNA)
[1]
  Km: 1060 µM
[2]; [21]
  Km: 230 µM

## N=C(N)NCCC[C@H](NC(=O)CNC(=O)[C@@H](CCCNC(=N)N)NC(=O)OCc1ccccc1)C(=O)Nc1ccc([N+](=O)[O-])cc1 [Example 1, N^α --Z--D--Arg--Gly--Arg--pNA.2HCl] (Cbz-[dR]-Gly-Arg-pNA)
[1]
  Km: 380 µM
[2]; [21]
  Km: 130 µM

## Bz--Ile--Glu--(γ--OR)--Gly--ARg--pNA.HCl [Example S-2222]
[1]
  Km: 1970 µM
[1]; [22]
  Vmax: 46 µmol/L/min
  Vmax /Km: 0.023 min⁻¹
[2]; Kcat/Km FXa bovine divided by Kcat/Km thrombin bovine
  ratio for the selectivity constant FXa bovine through thrombin: 19.4
[2]; [21]
  Km: 710 µM
  Kcat: 13 sek^-1
[2]; Thrombin bovine, trisbuffer pH 8.3, I=0.25, 37° C.
  Kcat /Km: 0.018 1/μmol · sek
[3]; FXa bovine E0=4 nmol/l (pNA-substrate) or 2 nmol/l (AMC-substrate), substrate 0.01-0.4 mmol/l, trisbuffer 0.05 mol/l, pH 8.3, I=0.25, 37° C.
  Km: 510 µM
[3]; FXa bovine E0=4 nmol/l (pNA-substrate) or 2 nmol/l (AMC-substrate), trisbuffer pH 8.3, I=0.25, 37° C.
  Kcat: 180 sek^-1
[3]; FXa bovine, trisbuffer pH 8.3, I=0.25, 37° C.
  Kcat /Km (selectivity constant): 0.35 l/μmol · sek

## N=C(N)NCCC[C@H](NC(=O)CNC(=O)[C@@H](CCCNC(=N)N)NS(=O)(=O)Cc1ccccc1)C(=O)Nc1ccc([N+](=O)[O-])cc1 [Example 16, N^α --Bzls--D--Arg--Gly--Arg--pNA.2HCl]
[1]
  Km: 50 µM
[2]; [21]
  Km: 160 µM

B1: FXa bovine (Bos taurus) (protein)
chain: IVGGRDCAEGECPWQALLVNEENEGFCGGTILNEFYVLTAAHCLHQAKRFTVRVGDRNTEQEEGNEMAHEVEMTVKHSRFVKETYDFDIAVLRLKTPIRFRRNVAPACLPEKDWAEATLMTQKTGIVSGFGRTHEKGRLSSTLKMLEVPYVDRSTCKLSSSFTITPNMFCAGYDTQPEDACQGDSGGPHVTRFKDTYFVTGIVSWGEGCARKGKFGVYTKVSNFLKWIDKIMKARAGAAGSRGHSEAPATWTVPPPLPL
[4]
  Km: 220 µM
  kcat: 180 sek^-1
  kcat/Km: 0.82 l/μmol · sek
[5]
  Km: 290 µM
[6]
  Km: 160 µM
  kcat: 225 sek^-1
  kcat/Km: 1.41 l/μmol · sek
[7]
  Km: 190 µM
[8]
  Km: 160 µM
  kcat: 220 sek^-1
  kcat/Km: 1.37 l/μmol · sek
[9]
  Km: 150 µM
[10]
  Km: 200 µM
  kcat: 210 sek^-1
  kcat/Km: 1.05 l/μmol · sek
[11]
  Km: 170 µM
  kcat: 200 sek^-1
  kcat/Km: 1.17 l/μmol · sek
[12]
  Km: 190 µM
  kcat: 170 sek^-1
  kcat/Km: 0.89 l/μmol · sek
[13]
  Km: 220 µM
  kcat: 230 sek^-1
  kcat/Km: 1.04 l/μmol · sek
[14]
  Km: 210 µM
  kcat: 350 sek^-1
  kcat/Km: 1.66 l/μmol · sek
[15]
  Km: 110 µM
[16]
  Km: 40 µM
[17]
  Km: 270 µM
  kcat: 260 sek^-1
  kcat/Km: 0.96 l/μmol · sek
[18]
  Km: 450 µM
  kcat: 245 sek^-1
  kcat/Km: 0.55 l/μmol · sek
[19]
  Km: 120 µM
  kcat: 140 sek^-1
  kcat/Km: 1.14 l/μmol · sek
[20]
  Km: 260 µM
  kcat: 280 sek^-1
  kcat/Km: 1.07 l/μmol · sek
